These results are taken from publication PMC11213201 (2024).

B1: ZFYVE21-FLAG [not stated] / LC3B [human (endogenous in HUVEC)] (parent complex)
chain 1: MSSEVSARRDAKKLVRSPSGLRMVPEHRAFGSPFGLEEPQWVPDKECRRCMQCDAKFDFLTRKHHCRRCGKCFCDRCCSQKVPLRRMCFVDPVRQCAECALVSLKEAEFYDKQLKVLLSGATFLVTFGNSEKPETMTCRLSNNQRYLFLDGDSHYEIEIVHISTVQILTEGFPPGGGNARATGMFLQYTVPGTEGVTQLKLTVVEDVTVGRRQAVAWLVAMHKAAKLLYESRDQ
chain 2: not shown

The variants in this experiment derive from B1. Nature of the experiment: FLAG co-IP and Western blot (densitometry); transduced HUVECs; read off a plot.
Turning to chain 1 L149A, the response is roughly 0.092 Fold Change LC3-II.

With chain 1 L60A, the response is roughly 0.078 Fold Change LC3-II.

As to chain 1 F57A, the response was roughly 0.17 Fold Change LC3-II.

Turning to chain 1 Y146A, the response was roughly 0.036 Fold Change LC3-II.
